The values that follow come from the supplement of paper PMC10567573.

B1: USP39 (parent)
chain: FQGSMRIFTKKLPHPDLPAEEKEQ
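Also: lentivirally expressed fusions sorted by FACS into six bins by GFP to DsRed ratio, PSI derived from sequencing read proportions per bin multiplied by bin number.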

Variants of B1 are the subject of this data set. Put plainly: protein stability index of a GFP-peptide fusion (GPS, HEK-293T) (PSI 1-6); higher = more stable. The following applies: c terminus: a fixed tail appended.
Consider FQGSMRIFTKKLPHPDLPWEEKEQ [A19W], for which the protein stability index stood at 1.58.

Consider FQGSMRIFTKKLPHPDLPNEEKEQ [A19N], for which the protein stability index came out at 1.79.

On to FQGSMRIFTKKLPHPDLPIEEKEQ [A19I], for which the protein stability index worked out at 1.53.

With FQGSMRIFTKKLPHPDLPDEEKEQ [A19D], the protein stability index turned out to be 2.07.

Consider FQGSMRIFTKKLPHPDLFAEEKEQ [P18F], for which the protein stability index came to 2.11.

FQGSMRIFTKKLPHPDLGAEEKEQ [P18G]: the protein stability index is 1.98.

Turning to FQGSMRIFTKKLPHPDLIAEEKEQ [P18I], the protein stability index was 1.7.

Consider FQGSMRIFTKKLPHPDLQAEEKEQ [P18Q], for which the protein stability index is 2.15.

On to FQGSMRIFTKKLPHPDLVAEEKEQ [P18V], for which the protein stability index was found to be 1.71.

FQGSMRIFTKKLPHPDLMAEEKEQ [P18M]: the protein stability index is 2.06.

For FQGSMRIFTKKLPHPDLKAEEKEQ [P18K], the protein stability index worked out at 2.01.

On to FQGSMRIFTKKLPHPDLSAEEKEQ [P18S], for which the protein stability index is 2.21.

Regarding FQGSMRIFTKKLPHPDLLAEEKEQ [P18L], the protein stability index was determined as 1.75.

With FQGSMRIFTKKLPHPDLRAEEKEQ [P18R], the protein stability index came out at 1.88.

On to FQGSMRIFTKKLPHPDLHAEEKEQ [P18H], for which the protein stability index amounted to 1.82.

Take FQGSMRIFTKKLPHPDLWAEEKEQ [P18W]: the protein stability index stood at 2.1.

For the variant FQGSMRIFTKKLPHPDLTAEEKEQ [P18T], the protein stability index came to 1.88.

Take FQGSMRIFTKKLPHPDLYAEEKEQ [P18Y]: the protein stability index came to 1.74.

With FQGSMRIFTKKLPHPDLNAEEKEQ [P18N], the protein stability index amounted to 1.98.

Turning to FQGSMRIFTKKLPHPDLPAEEWEQ [K22W], the protein stability index was found to be 1.93.

As for FQGSMRIFTKKLPHPDLPAEEMEQ [K22M], the protein stability index was determined as 2.32.

With FQGSMRIFTKKLPHPDLPAEEAEQ [K22A], the protein stability index stood at 2.23.

For the variant FQGSMRIFTKKLPHPDLPAEENEQ [K22N], the protein stability index stood at 2.09.

Turning to FQGSMRIFTKKLPHPDLPAEEYEQ [K22Y], the protein stability index stood at 1.54.

As for FQGSMRIFTKKLPHPDLPAEELEQ [K22L], the protein stability index came out at 1.78.

For the variant FQGSMRIFTKKLPHPDLPAEEPEQ [K22P], the protein stability index worked out at 2.09.

For FQGSMRIFTKKLPHPDLPAEEHEQ [K22H], the protein stability index came to 1.22.

Consider FQGSMRIFTKKLPHPDLPAEECEQ [K22C], for which the protein stability index came out at 1.69.

Consider FQGSMRIFTKKLPHPDLPAEEEEQ [K22E], for which the protein stability index was found to be 2.11.

Turning to FQGSMRIFTKKLPHPDLPAEESEQ [K22S], the protein stability index is 1.88.

Consider FQGSMRIFTKKLPHPDLPAEEIEQ [K22I], for which the protein stability index came to 1.94.

Regarding FQGSMRIFTKKLPHPDLPAEEREQ [K22R], the protein stability index came to 2.54.

Regarding FQGSMRIFTKKLPHPDLPAEEQEQ [K22Q], the protein stability index came to 1.62.

On to FQGSMRIFTKKLPHPDLPAEEFEQ [K22F], for which the protein stability index turned out to be 1.96.

On to FQGSMRIFTKKLPHPDLPAEEDEQ [K22D], for which the protein stability index came to 2.08.

Take FQGSMRIFTKKLPHPDLPAEETEQ [K22T]: the protein stability index worked out at 1.93.

With FQGSMRIFTKKLPHPDLPAEEGEQ [K22G], the protein stability index is 2.13.

FQGSMRIFTKKLPHPDLPAEEVEQ [K22V]: the protein stability index worked out at 2.48.

As for FQGSMRIFTKKLPHPDLPAEGKEQ [E21G], the protein stability index came to 1.88.

For FQGSMRIFTKKLPHPDLPAEPKEQ [E21P], the protein stability index was found to be 2.02.

FQGSMRIFTKKLPHPDLPAEHKEQ [E21H]: the protein stability index was 2.25.

For FQGSMRIFTKKLPHPDLPAECKEQ [E21C], the protein stability index worked out at 1.54.

In the case of FQGSMRIFTKKLPHPDLPAELKEQ [E21L], the protein stability index was 2.04.

Take FQGSMRIFTKKLPHPDLPAEVKEQ [E21V]: the protein stability index is 1.4.

FQGSMRIFTKKLPHPDLPAEYKEQ [E21Y]: the protein stability index worked out at 1.62.

Consider FQGSMRIFTKKLPHPDLPAEQKEQ [E21Q], for which the protein stability index was found to be 2.08.

As to FQGSMRIFTKKLPHPDLPAETKEQ [E21T], the protein stability index turned out to be 2.01.

For the variant FQGSMRIFTKKLPHPDLPAEMKEQ [E21M], the protein stability index turned out to be 2.23.

For FQGSMRIFTKKLPHPDLPAEFKEQ [E21F], the protein stability index came out at 2.29.

For FQGSMRIFTKKLPHPDLPAENKEQ [E21N], the protein stability index worked out at 2.36.

For FQGSMRIFTKKLPHPDLPAEIKEQ [E21I], the protein stability index was found to be 2.45.

Turning to FQGSMRIFTKKLPHPDLPAERKEQ [E21R], the protein stability index was 1.96.

Take FQGSMRIFTKKLPHPDLPAEAKEQ [E21A]: the protein stability index was 1.81.

FQGSMRIFTKKLPHPDLPAEWKEQ [E21W]: the protein stability index amounted to 1.32.

Consider FQGSMRIFTKKLPHPDLPAEDKEQ [E21D], for which the protein stability index amounted to 1.73.

With FQGSMRIFTKKLPHPDLPAEKKEQ [E21K], the protein stability index came out at 1.91.

Take FQGSMRIFTKKLPHPDLPAESKEQ [E21S]: the protein stability index is 2.12.

For FQGSMRIFTKKLPHPDLPACEKEQ [E20C], the protein stability index is 2.12.

For FQGSMRIFTKKLPHPDLPASEKEQ [E20S], the protein stability index is 2.16.

Take FQGSMRIFTKKLPHPDLPAMEKEQ [E20M]: the protein stability index amounted to 1.67.

On to FQGSMRIFTKKLPHPDLPAWEKEQ [E20W], for which the protein stability index came to 2.38.

With FQGSMRIFTKKLPHPDLPAGEKEQ [E20G], the protein stability index worked out at 1.59.

FQGSMRIFTKKLPHPDLPAHEKEQ [E20H]: the protein stability index worked out at 1.59.

As to FQGSMRIFTKKLPHPDLPATEKEQ [E20T], the protein stability index turned out to be 2.17.

In the case of FQGSMRIFTKKLPHPDLPAFEKEQ [E20F], the protein stability index worked out at 1.85.

Turning to FQGSMRIFTKKLPHPDLPALEKEQ [E20L], the protein stability index came to 2.07.

Take FQGSMRIFTKKLPHPDLPAKEKEQ [E20K]: the protein stability index stood at 2.51.

As for FQGSMRIFTKKLPHPDLPAVEKEQ [E20V], the protein stability index stood at 1.5.

As for FQGSMRIFTKKLPHPDLPADEKEQ [E20D], the protein stability index stood at 1.87.

Take FQGSMRIFTKKLPHPDLPAAEKEQ [E20A]: the protein stability index worked out at 1.9.

For FQGSMRIFTKKLPHPDLPAIEKEQ [E20I], the protein stability index is 2.03.

For the variant FQGSMRIFTKKLPHPDLPAREKEQ [E20R], the protein stability index was determined as 1.95.

For the variant FQGSMRIFTKKLPHPDLPAQEKEQ [E20Q], the protein stability index came to 1.36.

Consider FQGSMRIFTKKLPHPDLPANEKEQ [E20N], for which the protein stability index came out at 1.51.

For FQGSMRIFTKKLPHPDLPAYEKEQ [E20Y], the protein stability index came to 1.87.

Regarding FQGSMRIFTKKLPHPDLPAEEKDQ [E23D], the protein stability index amounted to 2.16.

In the case of FQGSMRIFTKKLPHPDLPAEEKPQ [E23P], the protein stability index came to 1.84.

As to FQGSMRIFTKKLPHPDLPAEEKCQ [E23C], the protein stability index was 1.79.

In the case of FQGSMRIFTKKLPHPDLPAEEKIQ [E23I], the protein stability index was 1.57.

As to FQGSMRIFTKKLPHPDLPAEEKFQ [E23F], the protein stability index was found to be 1.38.

For FQGSMRIFTKKLPHPDLPAEEKQQ [E23Q], the protein stability index turned out to be 1.64.

For FQGSMRIFTKKLPHPDLPAEEKYQ [E23Y], the protein stability index was determined as 1.66.

On to FQGSMRIFTKKLPHPDLPAEEKMQ [E23M], for which the protein stability index turned out to be 1.85.

For FQGSMRIFTKKLPHPDLPAEEKHQ [E23H], the protein stability index stood at 2.18.

On to FQGSMRIFTKKLPHPDLPAEEKRQ [E23R], for which the protein stability index is 1.71.

As to FQGSMRIFTKKLPHPDLPAEEKVQ [E23V], the protein stability index came to 1.47.

Take FQGSMRIFTKKLPHPDLPAEEKTQ [E23T]: the protein stability index was determined as 1.61.

For FQGSMRIFTKKLPHPDLPAEEKGQ [E23G], the protein stability index turned out to be 2.21.

Consider FQGSMRIFTKKLPHPDLPAEEKWQ [E23W], for which the protein stability index came out at 2.19.

On to FQGSMRIFTKKLPHPDLPAEEKAQ [E23A], for which the protein stability index came out at 1.65.

As to FQGSMRIFTKKLPHPDLPAEEKLQ [E23L], the protein stability index turned out to be 1.69.

For the variant FQGSMRIFTKKLPHPDLPAEEKSQ [E23S], the protein stability index was 1.98.

Consider FQGSMRIFTKKLPHPDLPAEEKKQ [E23K], for which the protein stability index was 1.84.

For FQGSMRIFTKKLPHPDLPAEEKNQ [E23N], the protein stability index came to 2.1.
